Several values for one entry are separate records, joined by “and”; a condition that tells them apart may be missing. Equal entries are not always repeated. Entries after “also recorded” stand apart in the source; their conditions may differ. Where two headings read alike, the source gives them in different places.
What was measured:
Streptomycete ACPs = assay: modification of apo-form of Streptomycete ACPs; format: biochemical
E. coli FAS apo-ACP = E. coli FAS apo-ACP (Escherichia coli, UniProt P0A6A8); conditions: for phosphopantetheinylation of ACP: 25 μM ACP, 60 min at 37° C., FIG. 11
apo-ACP [1] = target: T1, apo-ACP (Escherichia coli, UniProt P0A6A8+P24224); conditions: 50 μM apo-ACP, 1.8 μM ACPS, 210 μM [3H]CoA, 36 hour, 37° C., replicates
EntF = target: T2, EntF (Escherichia coli, UniProt P11454); assay: [3H]-4'-phosphopantetheine incorporation into EntF; format: biochemical, E. coli; conditions: for time course of modification of EntF: EntD 100 nM, ACPS and o195 at 15-fold higher concentrations, FIG. 14A; for phosphopantetheinylation of EntF: FIG. 12
T2 construct: made in house
Method: A time course of EntD-catalyzed incorporation of radiolabel into EntF was performed.

apo-ACP [2] = target: T1, apo-ACP; conditions: for Km: steady-state kinetics, [3H]CoA radioassay
apo-Dcp = assay: in vitro phosphopantetheinylation of D-Alanyl carrier protein; format: biochemical, Lactobacillus casei
Method: In another example, varying concentrations of apo-Dcp were incubated with ACPS at 37° C. to determine extent of phosphopantetheinylation.
The assays were incubated overnight at 37° C.
The [^3H] holo-Dcp formed was quantitated by dividing dpm by specific activity of pantetheinyl moiety of CoA which is equal to 4.83×10^14 dmp/mol.

[3] = tested on: His6-PCP (peptidyl carrier protein domain of TycA); assay: [3H]-4'-phosphopantetheine transfer radioassay, His6-PCP substrate; conditions: for phosphopantetheinylation of His6-PCP: 25 μM His6-PCP, 60 min at 37° C., FIG. 11
SrfB1 [4] = target: T3, SrfB1 (Bacillus subtilis, UniProt Q04747); assay: [3H]-4'-phosphopantetheine incorporation into SrfB1; format: biochemical; conditions: FIG. 12
T3 construct: hexa-histidine (His6, from pPROEX-1) (N); made in house; host or cells: E. coli AG1574 (plasmid pML 118)
Target sequence in this assay (P39135 whole entry): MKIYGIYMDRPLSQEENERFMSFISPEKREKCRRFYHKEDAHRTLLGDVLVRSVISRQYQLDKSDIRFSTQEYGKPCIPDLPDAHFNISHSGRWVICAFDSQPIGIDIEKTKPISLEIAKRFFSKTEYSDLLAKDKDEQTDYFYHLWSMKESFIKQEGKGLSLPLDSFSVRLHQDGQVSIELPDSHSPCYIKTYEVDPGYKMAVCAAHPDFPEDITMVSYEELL
Target sequence in this assay (Q04747 92-1307): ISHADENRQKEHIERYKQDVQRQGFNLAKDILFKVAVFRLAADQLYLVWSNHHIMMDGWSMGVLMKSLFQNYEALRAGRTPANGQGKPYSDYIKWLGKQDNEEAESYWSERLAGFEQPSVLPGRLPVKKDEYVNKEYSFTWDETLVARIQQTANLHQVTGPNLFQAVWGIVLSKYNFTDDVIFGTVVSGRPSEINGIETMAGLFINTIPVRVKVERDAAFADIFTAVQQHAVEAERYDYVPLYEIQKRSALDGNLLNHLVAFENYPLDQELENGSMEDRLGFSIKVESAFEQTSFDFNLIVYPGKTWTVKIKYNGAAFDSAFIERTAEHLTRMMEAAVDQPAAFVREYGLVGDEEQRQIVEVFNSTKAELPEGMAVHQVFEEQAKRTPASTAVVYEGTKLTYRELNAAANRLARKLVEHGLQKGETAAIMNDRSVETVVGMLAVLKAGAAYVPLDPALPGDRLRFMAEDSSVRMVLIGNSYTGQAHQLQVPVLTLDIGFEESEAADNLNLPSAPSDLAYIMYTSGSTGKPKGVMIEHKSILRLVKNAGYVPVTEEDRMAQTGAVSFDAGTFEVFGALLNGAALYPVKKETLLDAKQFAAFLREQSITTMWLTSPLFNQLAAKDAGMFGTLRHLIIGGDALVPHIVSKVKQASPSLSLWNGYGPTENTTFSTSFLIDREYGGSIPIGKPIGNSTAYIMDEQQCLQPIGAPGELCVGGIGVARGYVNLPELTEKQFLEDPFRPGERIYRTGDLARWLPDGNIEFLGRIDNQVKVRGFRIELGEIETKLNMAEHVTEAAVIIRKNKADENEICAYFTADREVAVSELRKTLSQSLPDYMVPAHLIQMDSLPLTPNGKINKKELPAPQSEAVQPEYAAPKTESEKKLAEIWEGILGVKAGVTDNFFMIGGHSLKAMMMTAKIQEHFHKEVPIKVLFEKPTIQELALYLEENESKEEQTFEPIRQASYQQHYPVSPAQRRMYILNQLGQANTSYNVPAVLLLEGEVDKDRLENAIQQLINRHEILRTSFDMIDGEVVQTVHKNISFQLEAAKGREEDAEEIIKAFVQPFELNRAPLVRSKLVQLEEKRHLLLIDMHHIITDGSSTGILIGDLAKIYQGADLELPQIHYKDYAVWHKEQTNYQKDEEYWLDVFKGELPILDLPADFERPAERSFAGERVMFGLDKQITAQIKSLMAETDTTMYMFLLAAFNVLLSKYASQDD

SrfB1 [5] = target: T3, SrfB1; assay: [14C] amino acid activation by holo-SrfB1 formed with Sfp; format: biochemical; conditions: 2 μM apo-SrfB1, 1.3 μM Sfp, 200 μM CoASH, FIG. 15
Method: The reaction was performed as follows. Apo-SrfB1 (2 μM) was incubated with 200 μM CoASH, 75 mM Tris.HCl pH 8.0, 10 mM MgCl2, 25 mM DTT and 1.3 μM Sfp for 15 min at 37° C. to generate holo-SrfB1. To the SrfB1-Sfp reaction mixture, unlabeled amino acid (valine or aspartic acid) was added to 90 μM final concentration. ATP was added to a final concentration of 2 mM, followed by 0.5 μCi [^14C]Val (281 Ci/mol) or [^14C]Asp (207 Ci/mol). The reaction (115 μL) was incubated for 15 min at 37° C., then stopped by the addition of 800 μL 10% TCA with 15 μL of a 25 mg/mL BSA solution as carrier. The precipitate was collected by centrifugation, washed with 10% TCA, dissolved in 150 μL Tris base, and then counted by liquid scintillation.
Target sequence in this assay (Q04747 92-1307): as above

Chain of His6-PCP (peptidyl carrier protein domain of TycA) (P09095 528-602): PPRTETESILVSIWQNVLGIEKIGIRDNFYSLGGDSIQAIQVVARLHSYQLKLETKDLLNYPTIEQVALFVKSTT
Chain of E. coli FAS apo-ACP (P0A6A8 2-78): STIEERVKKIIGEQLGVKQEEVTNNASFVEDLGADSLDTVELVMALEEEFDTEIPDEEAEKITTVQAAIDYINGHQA
T1 sequence (P0A6A8 2-78, one chain of several): as the sequence (P0A6A8 2-78) above
T2 sequence (P11454 whole entry): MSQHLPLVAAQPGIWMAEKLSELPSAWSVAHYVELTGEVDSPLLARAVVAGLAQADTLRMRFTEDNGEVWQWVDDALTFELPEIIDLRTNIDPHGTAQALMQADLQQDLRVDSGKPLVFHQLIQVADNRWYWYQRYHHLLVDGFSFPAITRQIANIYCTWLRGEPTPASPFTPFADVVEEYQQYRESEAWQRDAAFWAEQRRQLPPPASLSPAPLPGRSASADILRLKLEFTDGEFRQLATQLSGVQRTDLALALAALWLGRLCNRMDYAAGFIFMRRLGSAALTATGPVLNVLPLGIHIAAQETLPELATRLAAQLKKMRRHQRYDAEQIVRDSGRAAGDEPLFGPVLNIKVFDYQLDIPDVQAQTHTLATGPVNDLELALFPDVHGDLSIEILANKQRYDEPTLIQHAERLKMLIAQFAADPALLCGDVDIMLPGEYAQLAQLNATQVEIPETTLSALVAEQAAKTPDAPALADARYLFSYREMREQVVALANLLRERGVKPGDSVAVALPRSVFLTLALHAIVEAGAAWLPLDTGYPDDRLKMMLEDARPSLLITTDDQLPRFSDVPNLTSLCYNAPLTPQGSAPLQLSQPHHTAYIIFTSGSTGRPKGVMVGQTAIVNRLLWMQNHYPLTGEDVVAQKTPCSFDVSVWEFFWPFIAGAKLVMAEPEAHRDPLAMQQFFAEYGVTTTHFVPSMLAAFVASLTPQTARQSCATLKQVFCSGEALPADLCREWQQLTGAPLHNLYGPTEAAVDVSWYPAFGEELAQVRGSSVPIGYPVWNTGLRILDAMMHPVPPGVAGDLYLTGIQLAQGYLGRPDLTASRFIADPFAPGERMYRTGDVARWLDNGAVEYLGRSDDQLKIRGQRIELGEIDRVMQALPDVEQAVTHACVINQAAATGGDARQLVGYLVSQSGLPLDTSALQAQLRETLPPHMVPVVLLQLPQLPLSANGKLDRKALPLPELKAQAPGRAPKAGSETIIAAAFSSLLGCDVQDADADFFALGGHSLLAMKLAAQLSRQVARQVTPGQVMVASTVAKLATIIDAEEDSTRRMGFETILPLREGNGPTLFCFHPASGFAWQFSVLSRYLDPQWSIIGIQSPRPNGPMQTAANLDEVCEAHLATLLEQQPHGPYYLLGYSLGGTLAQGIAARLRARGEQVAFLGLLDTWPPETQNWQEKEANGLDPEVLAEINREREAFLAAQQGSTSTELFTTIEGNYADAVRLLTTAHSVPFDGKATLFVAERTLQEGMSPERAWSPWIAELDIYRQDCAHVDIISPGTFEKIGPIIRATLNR

B1: ACPS: recombinant E. coli holo-acyl carrier protein synthase, 14 kDa dpj gene product overproduced in E. coli BL21(DE3)pDPJ (protein)
chain: MAILGLGTDIVEIARIEAVIARSGDRLARRVLSDNEWAIWKTHHQPVRFLAKRFAVKEAAAKAFGTGIRNGLAFNQFEVFNDELGKPRLRLWGEALKLAEKLGVANMHVTLADERHYACATVIIES
**Q.** What does the source list for B1?
**A.** modification of apo-form of Streptomycete ACPs (frenolicin, granaticin, oxytetracycline, tetracenomycin) (Streptomycete ACPs): modifies the apo-form; time course of modification of apo-ACP (E. coli FAS apo-ACP; FIG. 14B): almost exclusive modification; radioactivity incorporated into the protein fraction, ACP + ACPS (apo-ACP [1]): 2.21 × 10^6 (±.63%) and 2.13 × 10^6 (±.65%) and 2.20 × 10^6 (±.64%); time course of modification of EntF (EntF): almost no modification; substrate inhibition at apo-ACP concentrations (apo-ACP [2]): greater than 2 μM; specific activity (apo-ACP [2]; purification from E. coli BL21(DE3)pDPJ, fraction Crude extract): 200 mU · mg^−1; specific activity (apo-ACP [2]; purification from E. coli BL21(DE3)pDPJ, fraction DE-52): 250 mU · mg^−1; specific activity (apo-ACP [2]; purification from E. coli BL21(DE3)pDPJ, fraction SP-Sepharose): 320 mU · mg^−1; specific activity (apo-ACP [2]; purified protein, >95% purity): 320 mU/mg; Km (apo-ACP [2]; read-out: Km value for CoA): 50 µM; Km (apo-ACP [2]; read-out: Km value for apo-ACP (upper limit)): ≤ 1 µM; apparent kcat value (apo-ACP [2]; saturating CoA and 50 μM apo-ACP): about 10 min^−1; phosphopantetheinylation of Dcp (apo-Dcp): capable of phosphopantetheinylating Dcp; radioactivity incorporated into the protein fraction, Dcp + ACPS (apo-Dcp; 40 μM apo-Dcp, 1.8 μM ACPS, 210 μM [3H]CoA, 36 hour, 37° C., replicates): 1.04 × 10^6 (±0.93%) and 1.00 × 10^6 (±0.77%) and 0.98 × 10^6 (±0.95%); amount of holo-Dcp formed versus amount of apo-Dcp (apo-Dcp; varying apo-Dcp, 1.8 μM ACPS, overnight at 37° C., FIG. 4): increases linearly

B2: Sfp: B. subtilis protein (26.1 kD) involved in surfactin biosynthesis, shown to be a phosphopantetheinyl transferase (protein)
chain: VIGAFDSQPIGIDIEKTKPISLEIAKRFFSKTEYSDLLAKDKDEQTDYFYHLWSMKESFIKQEGKGLSLPLDSFSVRLHQDGQVSIELPDSHSPCYIKTYEVDPGYKMAVCAAHPDFPEDITMVSYEELL
**Q.** B2 was tested. Which “phosphopantetheinylation of PCP at different substrate concentrations” value ([3]; 13 nM Sfp, 15 minute reaction, FIG. 13) did it give?
**A.** capable of phosphopantetheinylating a substrate, such as PCP, in a wide range of concentrations

**Q.** And the “phosphopantetheinylation of His6-PCP” value [3]?
**A.** capable of transferring phosphopantetheine groups; also recorded: efficiently catalyzes modification

**Q.** And the “phosphopantetheinylation of SrfB1” value (SrfB1 [4])?
**A.** capable of phosphopantetheinylating; also recorded: efficiently catalyzes modification

**Q.** And the “increase of [14C]-L-valine-holo-SrfB1 covalent complex following incubation with Sfp” value (SrfB1 [5])?
**A.** about 14 fold

**Q.** What about the “phosphopantetheinylation of EntF” value (EntF) of the same molecule?
**A.** can catalyze modification

B3: o195: E. coli ORF protein of unknown function, homologous to ACPS, shown to phosphopantetheinylate substrates (protein)
chain: MYRIVLGKVSTLSAAPLPPGLREQAPQGPRRERWLAGRALLSHTLSPLPEIIYGEQGKPAFAPEMPLWFNLSHSGDDIALLLSDEGEVGCDIEVIRPRANWRWLANAVFSLGEHAEMDAVHPDQQLEMFWRIWTRKEAIVKQRGGSAWQIVSVDSTYHSSLSVSHCQLENLSLAICTPTPFTLTADSVQWIDSVN
**Q.** How did the “phosphopantetheinylation of ACP” value (E. coli FAS apo-ACP) turn out when B3 was run?
**A.** capable of transferring phosphopantetheine groups

**Q.** What about the “phosphopantetheinylation of His6-PCP” value [3] of the same molecule?
**A.** capable of transferring phosphopantetheine groups

**Q.** What about the “time course of modification of EntF” value (EntF) of the same molecule?
**A.** almost no modification

B4: EntD: E. coli protein (23.6 kD) involved in enterobactin biosynthesis, phosphopantetheinyl transferase (protein)
chain: SRQPIGIDIEEIFSVQTARELTDNIITPAEHERLADCGLAFSLALTLAFSAKESAFKASEIQTDAGFLDYQIISWNKQQVIIHRENEMFAVHWQIKEKIVITLCQHD
**Q.** For B4, which “phosphopantetheinylation of ACP” value (E. coli FAS apo-ACP) is on record?
**A.** capable of transferring phosphopantetheine groups

**Q.** What about the “phosphopantetheinylation of His6-PCP” value [3] of the same molecule?
**A.** capable of transferring phosphopantetheine groups

**Q.** What about the “time course of modification of EntF” value (EntF) of the same molecule?
**A.** modified effectively

**Q.** And the “phosphopantetheinylation of EntF” value (EntF)?
**A.** capable of phosphopantetheinylating

Reference: patent publication US7192735B2, “Phosphopantetheinyl transferases and uses thereof” (President & Fellows of Harvard College, priority 1995, dated 2007)
